Consider 2 molecules from patent CN1948343A (BEIJING ANBOTE GENE ENGINEERIN, dated 2007).

In test [1] the target is T1, 重组人TNF-α (human, UniProt P01375 77-233). The test is described as follows: cell-based or functional assay.
For test [2], the target named is T1, 重组人TNF-α. In words: competition ELISA: inhibition of binding of 1 μg/ml TNF-α to coated L929 TNF receptor extract.

T1 sequence (P01375 77-233 limits assumed): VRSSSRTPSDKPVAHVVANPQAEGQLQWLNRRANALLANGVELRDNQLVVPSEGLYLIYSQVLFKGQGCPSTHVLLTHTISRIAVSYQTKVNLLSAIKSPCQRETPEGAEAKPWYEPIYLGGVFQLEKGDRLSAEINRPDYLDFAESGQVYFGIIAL

B1: 抗TNF-α鼠源单链抗体 TNF-scFv (scFv, part only; not given: C-terminal tail of construct, part only)
scFv, part: QIQLVQSGPELKKPGETVKISCKASGYTFTHYGMNWVKQAPGKGLKWMGWINTYTGEPTYADDFKEHFAFSLETSASTVFLQINNLKNEDTATYFCARERGDAMDYWGQGTSVTVSSTSGGGGSGGGGSGGGGSSRSIVMTQTPKFLLVSAGDRVTITCTASQSVSNDVVWYQQKPGQSPKMLMYSAFNRYTGVPDRFTGRGYGTDFTFTISSVQAEDLAVYFCQQDYNSPRTFGGGTKLEIK
B1 came in with an MTT法: 抑制TNF-α对L929细胞的细胞毒作用, 50%抑制的浓度(IC50) in test [1] of 40 nM. This molecule returned an IC50 in test [2] of 3200 nM.

B2: 抗TNF-α基因工程四价单链抗体 TNF-TeAb (scFv)
chain: B1 scFv, part
B2: the “MTT法: 抑制TNF-α对L929细胞的细胞毒作用, 50%的抑制浓度(IC50)” value in test [1] was found to be 2.5 nM. Also, the IC50 in test [2] was roughly 400 nM.
